Among the data in the supplement of paper PMC10567573 are protein stability index values, retold here.

B1: DCAF4 (parent)
chain: TTKCVRQYEGHVNEYAYLPLHVHE
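Also: lentivirally expressed fusions sorted by FACS into six bins by GFP to DsRed ratio, PSI derived from sequencing read proportions per bin multiplied by bin number.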

The variants in the data set derive from B1. The experiment in a line: protein stability index of a GFP-peptide fusion (GPS, HEK-293T) (PSI 1-6); higher = more stable. Conditions: c terminus: a fixed tail appended.
As for TTKCVRQYEGHVNEYAYLQLHVHE [P19Q], the protein stability index is 1.75.
To TTKCVRQYEGHVNEYAYLNLHVHE [P19N] belongs 2.33; to TTKCVRQYEGHVNEYAYLELHVHE [P19E], 1.82.
As to TTKCVRQYEGHVNEYAYLMLHVHE [P19M], the protein stability index turned out to be 2.47.
To TTKCVRQYEGHVNEYAYLWLHVHE [P19W] belongs 2.57; to TTKCVRQYEGHVNEYAYLTLHVHE [P19T], 1.53; to TTKCVRQYEGHVNEYAYLLLHVHE [P19L], 2.16.
The same measure for TTKCVRQYEGHVNEYAYLFLHVHE [P19F]: 1.71; for TTKCVRQYEGHVNEYAYLSLHVHE [P19S]: 1.46; for TTKCVRQYEGHVNEYAYLRLHVHE [P19R]: 1.91.
The same measure for TTKCVRQYEGHVNEYAYLILHVHE [P19I]: 2.46; for TTKCVRQYEGHVNEYAYLVLHVHE [P19V]: 2.22.
Turning to TTKCVRQYEGHVNEYAYLGLHVHE [P19G], the protein stability index turned out to be 2.26.
For the variant TTKCVRQYEGHVNEYAYLYLHVHE [P19Y], the protein stability index amounted to 2.67.
The same measure for TTKCVRQYEGHVNEYAYLKLHVHE [P19K]: 1.87.
To TTKCVRQYEGHVNEYAYLHLHVHE [P19H] belongs 1.96; to TTKCVRQYEGHVNEYAYLPLHVHC [E24C], 2.25.
On to TTKCVRQYEGHVNEYAYLPLHVHA [E24A], for which the protein stability index worked out at 1.17.
The same measure for TTKCVRQYEGHVNEYAYLPYHVHE [L20Y]: 2.32; for TTKCVRQYEGHVNEYAYLPKHVHE [L20K]: 2.8; for TTKCVRQYEGHVNEYAYLPPHVHE [L20P]: 3.31.
Take TTKCVRQYEGHVNEYAYLPCHVHE [L20C]: the protein stability index stood at 2.67.
Turning to TTKCVRQYEGHVNEYAYLPTHVHE [L20T], the protein stability index was found to be 2.85.
To TTKCVRQYEGHVNEYAYLPSHVHE [L20S] belongs 3.13; to TTKCVRQYEGHVNEYAYLPEHVHE [L20E], 3.53; to TTKCVRQYEGHVNEYAYLPQHVHE [L20Q], 3.06.
To TTKCVRQYEGHVNEYAYLPFHVHE [L20F] belongs 2.35; to TTKCVRQYEGHVNEYAYLPDHVHE [L20D], 3.64.
To TTKCVRQYEGHVNEYAYLPHHVHE [L20H] belongs 3.
TTKCVRQYEGHVNEYAYLPRHVHE [L20R]: the protein stability index is 3.21.
To TTKCVRQYEGHVNEYAYLPNHVHE [L20N] belongs 3.1; to TTKCVRQYEGHVNEYAYLPAHVHE [L20A], 2.78.
The same measure for TTKCVRQYEGHVNEYAYLPGHVHE [L20G]: 2.41.
On to TTKCVRQYEGHVNEYAYLPIHVHE [L20I], for which the protein stability index is 2.74.
To TTKCVRQYEGHVNEYAYLPWHVHE [L20W] belongs 2.33.
Consider TTKCVRQYEGHVNEYAYLPMHVHE [L20M], for which the protein stability index is 2.63.
As for TTKCVRQYEGHVNEYAYLPVHVHE [L20V], the protein stability index came out at 2.44.
Regarding TTKCVRQYEGHVNEYAYLPLVVHE [H21V], the protein stability index was 2.25.
The same measure for TTKCVRQYEGHVNEYAYLPLDVHE [H21D]: 3.55.
To TTKCVRQYEGHVNEYAYLPLKVHE [H21K] belongs 2.16; to TTKCVRQYEGHVNEYAYLPLCVHE [H21C], 2.56.
TTKCVRQYEGHVNEYAYLPLAVHE [H21A]: the protein stability index was 2.58.
The same measure for TTKCVRQYEGHVNEYAYLPLFVHE [H21F]: 1.87; for TTKCVRQYEGHVNEYAYLPLNVHE [H21N]: 3.33.
To TTKCVRQYEGHVNEYAYLPLTVHE [H21T] belongs 2.8.
As to TTKCVRQYEGHVNEYAYLPLWVHE [H21W], the protein stability index was determined as 1.75.
Turning to TTKCVRQYEGHVNEYAYLPLIVHE [H21I], the protein stability index stood at 2.12.
Take TTKCVRQYEGHVNEYAYLPLEVHE [H21E]: the protein stability index worked out at 3.27.
TTKCVRQYEGHVNEYAYLPLGVHE [H21G]: the protein stability index was determined as 2.06.
To TTKCVRQYEGHVNEYAYLPLPVHE [H21P] belongs 2.63.
To TTKCVRQYEGHVNEYAYLPLMVHE [H21M] belongs 2.46.
Turning to TTKCVRQYEGHVNEYAYLPLRVHE [H21R], the protein stability index is 2.69.
To TTKCVRQYEGHVNEYAYLPLSVHE [H21S] belongs 3.05.
To TTKCVRQYEGHVNEYAYLPLQVHE [H21Q] belongs 2.66.
To TTKCVRQYEGHVNEYAYLPLLVHE [H21L] belongs 2.2; to TTKCVRQYEGHVNEYAYLPLYVHE [H21Y], 1.9; to TTKCVRQYEGHVNEYAYLPLHVIE [H23I], 3.56.
As for TTKCVRQYEGHVNEYAYLPLHVEE [H23E], the protein stability index is 3.21.
With TTKCVRQYEGHVNEYAYLPLHVKE [H23K], the protein stability index is 3.44.
To TTKCVRQYEGHVNEYAYLPLHVDE [H23D] belongs 3.45; to TTKCVRQYEGHVNEYAYLPLHVLE [H23L], 2.51; to TTKCVRQYEGHVNEYAYLPLHVNE [H23N], 2.81.
With TTKCVRQYEGHVNEYAYLPLHVME [H23M], the protein stability index was determined as 2.12.
The same measure for TTKCVRQYEGHVNEYAYLPLHVPE [H23P]: 3.32; for TTKCVRQYEGHVNEYAYLPLHVAE [H23A]: 2.78.
To TTKCVRQYEGHVNEYAYLPLHVSE [H23S] belongs 2.73; to TTKCVRQYEGHVNEYAYLPLHVVE [H23V], 2.19.
With TTKCVRQYEGHVNEYAYLPLHVCE [H23C], the protein stability index came to 2.52.
Regarding TTKCVRQYEGHVNEYAYLPLHVTE [H23T], the protein stability index is 2.37.
To TTKCVRQYEGHVNEYAYLPLHVFE [H23F] belongs 1.46.
Regarding TTKCVRQYEGHVNEYAYLPLHVRE [H23R], the protein stability index was determined as 2.48.
On to TTKCVRQYEGHVNEYAYLPLHVQE [H23Q], for which the protein stability index was found to be 3.38.
With TTKCVRQYEGHVNEYAYLPLHVWE [H23W], the protein stability index is 1.9.
The same measure for TTKCVRQYEGHVNEYAYLPLHVYE [H23Y]: 2.24; for TTKCVRQYEGHVNEYAYLPLHVGE [H23G]: 2.76; for TTKCVRQYEGHVNEYAYLPLHCHE [V22C]: 2.54.
The same measure for TTKCVRQYEGHVNEYAYLPLHSHE [V22S]: 3.24.
TTKCVRQYEGHVNEYAYLPLHAHE [V22A]: the protein stability index was determined as 2.79.
Consider TTKCVRQYEGHVNEYAYLPLHQHE [V22Q], for which the protein stability index was 3.3.
TTKCVRQYEGHVNEYAYLPLHEHE [V22E]: the protein stability index was 3.65.
For TTKCVRQYEGHVNEYAYLPLHPHE [V22P], the protein stability index turned out to be 2.63.
With TTKCVRQYEGHVNEYAYLPLHIHE [V22I], the protein stability index came to 2.42.
The same measure for TTKCVRQYEGHVNEYAYLPLHGHE [V22G]: 2.13.
Regarding TTKCVRQYEGHVNEYAYLPLHTHE [V22T], the protein stability index turned out to be 3.12.
The same measure for TTKCVRQYEGHVNEYAYLPLHDHE [V22D]: 3.85.
The same measure for TTKCVRQYEGHVNEYAYLPLHLHE [V22L]: 2.54; for TTKCVRQYEGHVNEYAYLPLHWHE [V22W]: 2.61.
For TTKCVRQYEGHVNEYAYLPLHMHE [V22M], the protein stability index came to 3.06.
Take TTKCVRQYEGHVNEYAYLPLHYHE [V22Y]: the protein stability index is 2.43.
The same measure for TTKCVRQYEGHVNEYAYLPLHFHE [V22F]: 2.01.
To TTKCVRQYEGHVNEYAYLPLHRHE [V22R] belongs 2.58; to TTKCVRQYEGHVNEYAYLPLHNHE [V22N], 3.19.
In the case of TTKCVRQYEGHVNEYAYLPLHHHE [V22H], the protein stability index worked out at 2.96.
The same measure for TTKCVRQYEGHVNEYAYLPLHKHE [V22K]: 3.27.
